Measurements: PMC8392014

Target: RSV phosphoprotein fragment P_(127–163) (respiratory syncytial virus (RSV)) (UniProt P12579)
Assay: SAXS; SEC-SAXS, 293 K, 200 µM P127-163 in 20 mM Na phosphate pH 6.5, 100 mM NaCl; scattering curve fitted with the NMR structure on the FoXs server

How did the stoichiometry N turn out when “RSV phosphoprotein fragment P_(127–163) (from UniProt P12579 127-163) (domain or fragment)” was run?
Its stoichiometry N is 4.
